Reference: PMC3523363 (Journal of medicinal chemistry, 2012)

What was measured:
[1] = in DMF; cited from earlier work
Spectroscopic studies = assay type: physicochemical; settings: in DMF; for фF (fluorescence quantum yield): calculated using ZnPc (Фf = 0.17) as the standard; for Emission: excitation at 670 nm
EGFR = EGFR (Homo sapiens, UniProt P00533); test: Surface plasmon resonance; assay type: binding; settings: EGFR immobilized on CM5 chip, 25 °C
A431 cells = test: Phototoxicity, Cell Titer Blue assay; assay type: cell-based, human; settings: 24 h
Vero cells = test: Phototoxicity, Cell Titer Blue assay; assay type: cell-based, cercopithecus aethiops; settings: 24 h
HEp2 cells = test: Phototoxicity, Cell Titer Blue assay; assay type: cell-based, human; settings: 24 h
HT-29 cells = test: Phototoxicity, Cell Titer Blue assay; assay type: cell-based, human; settings: 24 h
A431 s.c. tumors = test: In vivo near-IR fluorescence imaging of s.c. tumor xenografts; set-up: species or system nude mice; settings: 10 mg/kg iv, up to 96 h
HT-29 s.c. tumors = test: as above; set-up: species or system nude mice; settings: HT-29 s.c. tumor, 10 mg/kg iv, up to 96 h

Molecule: [Zn+2].c1ccc2c(c1)-c1nc-2nc2[n-]c(nc3nc([n-]c4nc(n1)-c1ccccc1-4)-c1ccccc1-3)c1ccccc21 [ZnPc]
- Фf (fluorescence quantum yield) of the reference [1]: 0.17

Molecule: CC[C@H](C)[C@H](NC(=O)[C@@H](NC(=O)[C@H](CC(N)=O)NC(=O)[C@H](CCC(N)=O)NC(=O)[C@@H]1CCCN1C(=O)[C@@H](NC(=O)[C@H](Cc1ccc(O)cc1)NC(=O)CNC(=O)[C@H](Cc1ccc(O)cc1)NC(=O)[C@H](Cc1c[nH]c2ccccc12)NC(=O)[C@H](Cc1c[nH]cn1)NC(=O)[C@H](Cc1ccc(O)cc1)NC(=O)CNC(=O)COCC(=O)Nc1ccc(Oc2ccc3c4nc5nc(nc6[nH]c(nc7nc(nc([nH]4)c3c2)-c2cc(C(C)(C)C)ccc2-7)c2ccc(C(C)(C)C)cc62)-c2ccc(C(C)(C)C)cc2-5)cc1)[C@@H](C)O)C(C)C)C(N)=O [Pc 4b]
- Stokes' Shift (Spectroscopic studies): 4 nm
- ε (Spectroscopic studies): 4.85 M⁻¹ cm⁻¹
- Absorption (Spectroscopic studies; Q band): 677 nm
- фF (fluorescence quantum yield) (Spectroscopic studies): 0.10
- Emission (Spectroscopic studies): 681 nm

Molecule: GYHWYGYTPQNVI [EGFR-L2]
- relative binding affinity to EGFR (SPR) (EGFR): higher affinity for EGFR than EGFR-L1

Molecule: CC(C)C[C@H](NC(=O)CCOCCOCCOCCNC(=O)COCC(=O)Nc1ccc(Oc2ccc3c4nc5nc(nc6[nH]c(nc7nc(nc([nH]4)c3c2)-c2cc(C(C)(C)C)ccc2-7)c2ccc(C(C)(C)C)cc62)-c2ccc(C(C)(C)C)cc2-5)cc1)C(=O)N[C@@H](C)C(=O)N[C@@H](CCCNC(=N)N)C(=O)N[C@@H](CC(C)C)C(=O)N[C@@H](CC(C)C)C(=O)N[C@H](C(N)=O)[C@@H](C)O [Pc 5b]
- ε (Spectroscopic studies): 5.27 M⁻¹ cm⁻¹
- фF (fluorescence quantum yield) (Spectroscopic studies): 0.11
- Emission (Spectroscopic studies): 682 nm
- IC50 (A431 cells): > 100 µM
- IC50 (Vero cells): > 100 µM
- IC50 (HEp2 cells): > 100 µM
- IC50 (HT-29 cells): > 100 µM
- course of tumor fluorescence signal (A431 s.c. tumors): continued to increase to 96 h
- course of tumor fluorescence signal (HT-29 s.c. tumors): declined from 24 to 96 h
